Data as given in patent publication US20210052630A1, “Methods and Compositions for Preventing or Treating Heart Disease” (Macau University of Science and Technology, priority 2019, published 2021).

Legend:
Format in all cases: cell-based, Rat
[1] = test system: H9C2 cells; test: MTT cell viability assay, H9C2 cells exposed to hypoxia/reoxygenation (H/R) injury; conditions: for cell viability (growth and proliferation of cardiomyocytes) under hypoxia/reoxygenation: 50 nM RNA, vs H/R group, FIG. 3B; for cardioprotective effect (cell viability), concentration series: 100, 50, 25, 12.5 nM, FIG. 4A/4B
Procedure: (§1) H9C2 cell lines were cultured in Dulbecco's Modified Eagle Medium (DMEM) containing 10% FBS and 1% penicillin/streptomycin at humidified atmosphere containing 5% CO2 at 37° C.
In the cell viability assay or mitochondrial viability assay, exponentially growing cells of H9C2 cell line were plated in 96-well microplate at a density of 5000 cells per well in 100 μL of culture medium and allowed to adhere for 24 h before treatment. For hypoxia, hypoxic treatment was achieved by exposing cells to KRB buffer (composition in: NaCl 115 mM, KCl 4.7 mM, CaCl2 2.5 mM, KH2PO4 1.2 mM, MgSO4 1.2 mM, NaHCO3 24 mM, HEPES 10 mM; pH 7.4) at 37° C. for 3 hr in an oxygen-free hypoxic chamber (Stem Cell Technologies, United States), serial concentrations of RNA molecules obtained in Example 1 were then added to the cells […]. For hypoxia/reoxygenation (H/R), Hypoxic treatment was achieved by exposing cells in glucose-free DMEM under conditions of 94.9% N2/5% CO2/0.1% O2 for 12 hr at a hypoxystation (whitley H35 hypoxystation, Don Whitley Scientific Ltd., England), serial concentrations of RNA molecules obtained in Example 1 and 2 were then added to the cells and reoxygenation by incubating in the normoxic condition (95% air/5% CO2) at 37° C. for 6 hr. After hypoxia or hypoxia/reoxygenation, MTT solution (100 μL per well, 0.5 mg/mL solution) or mitochondrial viability stain solution (follow the manufacture's instruction) was added to each well and incubated for 4 h at 37° C. Subsequently, for cell viability assay, 150 μL dimethyl sulfoxide (DMSO) were added and the optical densities of the resulting solutions were calorimetrically determined at 570 nm using a SpectraMax Paradigm multi-mode microplate reader (Molecular Devices, Sunnyvale, Calif., U.S.A). For mitochondrial viability assay, fluorescence detected at 550 nm excitation and 590 nm emission using SpectraMax Paradigm multi-mode microplate reader. Dose-response curves were obtained and calculated by GraphPad Prism 6 (GraphPad, La Jolla, Calif., USA). Each experiment was carried out for three times and expressed as means±standard deviation.

[2] = test system: H9C2 cells; test: Mitochondrial viability assay, H9C2 cells exposed to hypoxia/reoxygenation (H/R) injury; conditions: 300, 100, 30, 3 nM (FIG. 7A/7B)
Procedure: as §1
(§2) In the cell viability assay or mitochondrial viability assay, exponentially growing cells of H9C2 cell line were plated in 96-well microplate at a density of 5000 cells per well in 100 μL of culture medium and allowed to adhere for 24 h before treatment. […] Subsequently, for cell viability assay, 150 μL dimethyl sulfoxide (DMSO) were added and the optical densities of the resulting solutions were calorimetrically determined at 570 nm using a SpectraMax Paradigm multi-mode microplate reader (Molecular Devices, Sunnyvale, Calif., U.S.A). For mitochondrial viability assay, fluorescence detected at 550 nm excitation and 590 nm emission using SpectraMax Paradigm multi-mode microplate reader. Dose-response curves were obtained and calculated by GraphPad Prism 6 (GraphPad, La Jolla, Calif., USA). Each experiment was carried out for three times and expressed as means±standard deviation.

[3] = test system: H9C2 cell cytoskeleton; test: Cytoskeleton imaging (Rhodamine Phalloidin/DAPI, confocal) of H9C2 cells after H/R injury; conditions: 900, 300, 100, 30, 10, 3, 0.3 nM, FIG. 8A/8B
Procedure: H9C2 cells were plated in p-slide 8 well plate (Ibidi GmbH, Germany) at a density of 10000 cells per well in 200 μL of culture medium and allowed to adhere for 24 h before treatment. Hypoxic treatment was achieved by exposing cells in glucose-free DMEM under conditions of 94.9% N2/5% CO2/0.1% O2 for 12 hr at a hypoxystation (whitley H35 hypoxystation, Don Whitley Scientific Ltd., England), serial concentrations of RNA molecules obtained in Example 2 were then added to the cells and reoxygenation by incubating in the normoxic condition (95% air/5% CO2) at 37° C. for 6 hr. After hypoxia/reoxygenation, cells were stained with Rhodamine Phalloidin and DAPI following the manufacturer's instruction. Images were acquired on a Leica TCS SP8 Confocal Microscopy with a 20× objective.

[4] = test system: H9C2 cells; test: MTT cell viability assay, H9C2 cells under H/R injury, RNA transfected with DharmaFECT4; conditions: 300, 100, 30 nM, vs H/R+DharmaFECT4 group, FIG. 11A/11B
Procedure: FIG. 11A is a bar chart showing the cell viability of H9C2 cells exposed to hypoxia/reoxygenation (H/R) injury after treatment with RNA molecule HC50 at different concentrations, i.e. 300 nM, 100 nM and 30 nM, by transfected with DharmaFECT4 transfection reagent, compared to a control group, a H/R along with DharmaFECT4 treated group in accordance with an example embodiment (mean±SD n=3; **, p<0.01, vs. vehicle H/R+ DharmaFECT4; ####, p<0.0001 vs. vehicle control). […]
as §2

[5] = test system: H9C2 cell line; test: MTT cell viability assay, H9C2 cells exposed to hypoxia injury; conditions: 300 nM RNA, H9C2, hypoxia 3 hr, vs hypoxia group, FIG. 3A

HC50: double-stranded RNA, sense SEQ ID NO: 2 and antisense SEQ ID NO: 234, 19 base pairs (sense GCGGAUGUAGCCAAGUGGA; antisense UCCACUUGGCUACAUCCGC; cholesterol-conjugated double-stranded RNA, conjugate position not given here)
cell viability (growth and proliferation of cardiomyocytes), screen of synthesized RNA molecules ([1]; 300 nM, H9C2, H/R, FIG. 5A/5B): effective in promoting the growth and proliferation of cardiomyocytes | cell viability, protective effect against H/R injury, concentration series ([1]; 900, 300, 30, 3, 0.3 nM, H9C2, FIG. 6A/6B): dose-dependent protective effect against hypoxia/reoxygenation (H/R) injury | mitochondrial viability, protective effect against H/R injury, concentration series [2]: dose-dependent protective effect against hypoxia/reoxygenation (H/R) injury | protective effect on cytoskeleton destruction [3]: significantly relieve cytoskeleton destruction of H9C2 cells caused by hypoxia/reoxygenation (H/R) injury in a dose-dependent manner | cell viability (growth and proliferation of cardiomyocytes), transfected with DharmaFECT4 [4]: promoted the growth and proliferation of cardiomyocytes against hypoxia/reoxygenation (H/R) injury in a dose-dependent manner

B1: GCGGAUAUAGUCGAAUGGUAAAAUUUCUCUUUGCCAAGGAGAAGACGCGGGUUCGAUUCCCGCUAUCCGCCCCA (nucleic acid)
chain: GCGGAUAUAGUCGAAUGGUAAAAUUUCUCUUUGCCAAGGAGAAGACGCGGGUUCGAUUCCCGCUAUCCGCCCCA
modifications: expressed or natural sequence
notes: tRNA isolated from Panax ginseng C; A. Mey; 74 mer
cell viability (growth and proliferation of cardiomyocytes) under hypoxia [5]: capable to promote the growth and proliferation of cardiomyocytes | cell viability (growth and proliferation of cardiomyocytes) under hypoxia/reoxygenation ([1]; H9C2, H/R): capable to promote the growth and proliferation of cardiomyocytes | cardioprotective effect (cell viability), concentration series ([1]; H9C2, H/R): significant cardioprotective effects in a dose-dependent manner

B2: GCGGAUGUAGCCAAGUGGAUCAAGGCAGUGGAUUGUGAAUCCACCAUGCGCGGGUUCAAUUCCCGUCGUUCGCCCCA (nucleic acid)
chain: GCGGAUGUAGCCAAGUGGAUCAAGGCAGUGGAUUGUGAAUCCACCAUGCGCGGGUUCAAUUCCCGUCGUUCGCCCCA
modifications: expressed or natural sequence
notes: tRNA isolated from Panax ginseng C; A. Mey; 77 mer
cell viability (growth and proliferation of cardiomyocytes) under hypoxia/reoxygenation ([1]; H9C2, H/R): capable to promote the growth and proliferation of cardiomyocytes | cardioprotective effect (cell viability), concentration series ([1]; H9C2, H/R): significant cardioprotective effects in a dose-dependent manner

B3: CGCGGAGUAGAGCAGUUUGGUAGCUCGCAAGGCUCAUAACCUUGAGGUCACGGGUUCAAAUCCUGUCUCCGCAACCA (nucleic acid)
chain: CGCGGAGUAGAGCAGUUUGGUAGCUCGCAAGGCUCAUAACCUUGAGGUCACGGGUUCAAAUCCUGUCUCCGCAACCA
modifications: expressed or natural sequence
notes: as for B2
cell viability (growth and proliferation of cardiomyocytes) under hypoxia [5]: capable to promote the growth and proliferation of cardiomyocytes
